# T1: ZRANB2-F2 R82Q (Homo sapiens, UniProt O95218 O95218:65-95, R82Q)
# T1 chain: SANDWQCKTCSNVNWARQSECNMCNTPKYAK
# T2: ZRANB2-F1 (Homo sapiens, UniProt O95218 O95218:1-45)
# T2 chain: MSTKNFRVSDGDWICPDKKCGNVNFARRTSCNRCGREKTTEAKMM
# T3: ZRANB2-F2 (Homo sapiens, UniProt O95218 O95218:65-95)
# T3 chain: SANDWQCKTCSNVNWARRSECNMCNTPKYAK
# T4: ZRANB2-F2 T73A (Homo sapiens, UniProt O95218 O95218:65-95, T73A)
# T4 chain: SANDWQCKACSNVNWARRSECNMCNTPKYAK
# T5: ZRANB2-F2 K72A (Homo sapiens, UniProt O95218 O95218:65-95, K72A)
# T5 chain: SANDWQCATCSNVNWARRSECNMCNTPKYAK
# T6: ZRANB2-F2 (untagged) (Homo sapiens, UniProt O95218 O95218:65-95)
# T6 chain: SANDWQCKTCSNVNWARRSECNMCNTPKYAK
# B1: 17-nt site as dsDNA (dsDNA)
# DNA 1: GCAACCAGGTAAAGTCT
# DNA 2: AGACTTTACCTGGTTGC
# modifications: [none]
# B2: Tra2-beta exon 3 5' splice site (ssRNA)
# RNA: CUCUGAAUCUAGGUAAGAAAG
# B3: 17-nt AGGUAA ssRNA (ssRNA)
# RNA: GCAACCAGGUAAAGUCU
# B4: double site spacing 5 (penta-adenine) (ssRNA)
# RNA: AGGUAAAAAAAAGGUAA
# modifications: [none]
# B5: AGAUAA (3A) (ssRNA)
# RNA: AGAUAA
# B6: Tra2-beta exon 3 5' splice site competitor (ssRNA)
# RNA: CUCUGAAUCUAGGUAAGAAAG
# B7: double site AGGUAAAGGUAA (ssRNA)
# RNA: AGGUAAAGGUAA
# B8: 10-nt AGGUAA RNA (ssRNA)
# RNA: CCAGGUAAAG
# B9: 17-nt site as dsRNA (dsRNA)
# RNA 1: GCAACCAGGUAAAGUCU
# RNA 2: AGACUUUACCUGGUUGC
# B10: 17-nt CUG mutant ssRNA (ssRNA)
# RNA: GCAACCACUGAAAGUCU
# modifications: [none]
# Legend:
# [1] = biological target: T7, ZRANB2-F12 (Homo sapiens, UniProt O95218 O95218:1-95); test: EMSA; dsDNA control; conditions: tags: GST removed for FA, gel shift and SPR; label: 32P
# Procedure: (§1) Gel Shift assays e.g., FIGS. 1B, 32A, were carried out using standard protocols. In brief, oligonucleotides were 5′ end-labelled with T4 polynucleotide kinase and annealed. Binding reactions were set up in a volume of 30 μL and contained a constant concentration of ³²P-labeled probe (0.1 pmol) and increasing concentrations of F12, in a buffer consisting of 10 mM Mops (pH 7.2), 50 mM KCl, 5 mM MgCl₂, 1 mM DTT, 0.03 mg/mL heparin, and 5% glycerol. Binding reactions were set up on ice and incubated at 4° C. for 30 min, after which time 15 μL of each sample was loaded onto a prerun 8% native polyacrylamide gel made up in 0.5× Tris-borate buffer, and electrophoresed (250V, 1 h, 4° C.). The oligonucleotide sequence used for gel shift experiments was […] (SEQ ID NO: 28); the site was mutated by changing the central GGU to CUG.
# (§2) To determine whether the AGGUAA motif was sufficient for binding, the binding of the double finger construct F12 to a 17-nt RNA oligonucleotide containing a single AGGUAA motif was tested as described in Section 1.4 above with dsDNA, ssDNA, and dsRNA also tested as controls. […] Mutation of the central GGU, which is the most highly-conserved element in the SELEX consensus to CUG, abrogated the interaction, showing that the interaction is sequence specific (FIG. 1B).
# [2] = biological target: T7, ZRANB2-F12; test: SPR; immobilised RNA; 750 nM F12; 10 mM phosphate pH 7.2, 50 mM NaCl, 25 C; conditions: tags: GST removed for FA, gel shift and SPR; label: 5'-biotin
# Procedure: (§3) Competition binding experiments were carried out by flowing a solution of F12 over a streptavidin chip coated with a biotinylated ssRNA oligonucleotide (containing the sequence AGGUAA) in the presence of an unlabeled competitor oligonucleotide.
# (§4) Binding experiments were performed in triplicate at 25° C. on a BIACORE 3000 (Biacore). A 5′ biotin-labeled RNA oligonucleotide containing the 5′ splice site from exon 3 of the Tra2β minigene ([…]; SEQ ID NO: 29) was purified by size exclusion chromatography (Superdex 75), and unlabeled competitor oligonucleotides i.e., […] from exon 1 (SEQ ID NO: 30), […] from exon 2 (SEQ ID NO: 31), and […] from exon 3 (SEQ ID NO: 32) were used without further purification. Protein and RNA samples were dialysed into 10 mM sodium phosphate (pH 7.2), 50 mM NaCl, 1 mM DTT, and 0.005% NP20 and filtered. The biotinylated RNA was heated to 65° C. for 5 min, cooled on ice, and then immobilized onto a streptavidin-coated sensor chip to a total of approximately 160 relative units. Solutions of 750 nM F12 in the presence of 1 molar equivalent of each competitor RNA were injected in random order over the sensor chip (at a flow rate of 20 μL/min for 120 sec) and allowed to undergo a 120-sec dissociation time; a further 300-sec interval was allowed between injections. Data were analyzed by using BIA Evaluation software (Biacore).
# [3] = biological target: T1, ZRANB2-F2 R82Q; test: FP; conditions: label: 5'-fluorescein (FA) or 32P (gel shift)
# Procedure: (§5) Fluorescence Anisotropy titrations e.g., as shown in FIGS. 1D-F, 8 and 35, were carried out using standard protocols. In brief, 5′-Fluorescein-labeled RNA oligonucleotides were quantified by A₂₆₀, correcting for fluorescein absorbance by using A₄₉₃. For single-site experiments, the sequence […] (SEQ ID NO: 28), or single base mutants thereof, was used. For double-site experiments, two AGGUAA sites were separated by different length sequences as indicated, and the total oligonucleotide lengths were kept constant by the symmetrical addition of adenines to each end. […] Protein was titrated into this starting solution and anisotropy values measured on a Cary Eclipse fluorescence spectrophotometer fitted with manual polarizer and long-pass filters set to 475 and 515 nm for excitation and emission, respectively. […] Association constants were determined by nonlinear least squares regression analysis using a 1:1 binding model.
# (§6) To determine whether changing arginine-82 (R82) would affect the binding preference of ZRANB2-F2 from GGU to GAU, the point mutation R82Q in ZNF 2 of ZRANB2 was made and the ability of both the wild type (W) protein and the R82Q mutant to bind to AGGUAA and AGAUAA was assessed by fluorescence anisotropy binding assays as described previously in Example 1.
# [4] = biological target: T7, ZRANB2-F12; test: EMSA; 10 mM Mops pH 7.2, 50 mM KCl, 5 mM MgCl2, heparin, 4 C; conditions: tags: GST removed for FA, gel shift and SPR; label: 5'-fluorescein (FA) or 32P (gel shift)
# Procedure: as §1, §2
# [5] = biological target: T2, ZRANB2-F1; test: FP; GST-F1; 10 mM Tris pH 8.0, 50 mM KCl, 5 mM MgCl2, heparin, 25 C; conditions: tags: GST fusion; label: 5'-fluorescein (FA) or 32P (gel shift)
# Procedure: as §5
# Constructs of the two individual domains, F1 (FIG. 2, residues 1-45) and F2 (FIG. 2, residues 65-95), were cloned expressed and purified as GST fusions described in section 1.2 above, and tested their ability to bind ssRNA by fluorescence anisotropy as described in section 1.5 above, using a ssRNA oligonucleotide bearing a 5′ fluorescein tag and containing a single AGGUAA site.
# [6] = biological target: T3, ZRANB2-F2; test: FP; GST-F2; 10 mM Tris pH 8.0, 50 mM KCl, 5 mM MgCl2, heparin, 25 C; conditions: tags: GST fusion (FA); label: 5'-fluorescein (FA) or 32P (gel shift)
# Procedure: (§7) Fluorescence Anisotropy titrations e.g., as shown in FIGS. 1D-F, 8 and 35, were carried out using standard protocols. In brief, 5′-Fluorescein-labeled RNA oligonucleotides were quantified by A₂₆₀, correcting for fluorescein absorbance by using A₄₉₃. For single-site experiments, the sequence […] (SEQ ID NO: 28), or single base mutants thereof, was used. For double-site experiments, two AGGUAA sites were separated by different length sequences as indicated, and the total oligonucleotide lengths were kept constant by the symmetrical addition of adenines to each end. The anisotropy titrations were performed with a starting RNA concentration of 50 nM in a buffer comprising either 10 mM Tris (pH 8.0), 50 mM KCl, 5 mM MgCl₂, 0.05 mg/mL heparin, and 1 mM DTT (for GST fusion constructs) or 10 mM Mops (pH 7.3), 50 mM NaCl, 0.05 mg/mL heparin, and 1 mM DTT (for ZRANB2-F12). RNasin (Promega) was also added to the protein solution to a concentration of 2 units/μL. Protein was titrated into this starting solution and anisotropy values measured on a Cary Eclipse fluorescence spectrophotometer fitted with manual polarizer and long-pass filters set to 475 and 515 nm for excitation and emission, respectively. […] Association constants were determined by nonlinear least squares regression analysis using a 1:1 binding model.
# [7] = biological target: T4, ZRANB2-F2 T73A; test: FP; much smaller change in affinity; conditions: label: 5'-fluorescein (FA) or 32P (gel shift)
# Procedure: as §7, with “model. […]” for “model.”
# [8] = biological target: T5, ZRANB2-F2 K72A; test: FP; much smaller change in affinity; conditions: label: 5'-fluorescein (FA) or 32P (gel shift)
# Procedure: as §7, with “model. […]” for “model.”
# [9] = biological target: T7, ZRANB2-F12; test: FP; higher affinity than shorter spacings; value in figure only; conditions: tags: GST removed for FA, gel shift and SPR; label: 5'-fluorescein
# Procedure: as §5
# The importance of the spacing between AGGUAA motifs was assessed by measuring binding of F12 to double sites that were separated by −1 to 8 nt (where −1 denotes the sequence […] SEQ ID NO: 33; FIG. 1E, lanes 5-10).
# [10] = biological target: T1, ZRANB2-F2 R82Q; test: FP; no preference between G and A at position 3; conditions: label: 5'-fluorescein
# Procedure: as §5, §6
# [11] = biological target: T7, ZRANB2-F12; test: competition; strongest competitor in SPR competition; conditions: tags: GST removed for FA, gel shift and SPR
# Procedure: as §3
# as §4, with “software (Biacore). […]” for “software (Biacore).”
# [12] = biological target: T7, ZRANB2-F12; test: 15N-HSQC titration; conditions: tags: GST removed for FA, gel shift and SPR; label: 5'-fluorescein
# Procedure: In brief, F2 and F12 were dialysed into 25 mM potassium phosphate (pH 7.0), 25 mM NaCl, and 0.5 mM DTT and concentrated to 0.4-1 mM. All spectra were recorded on a Bruker Avance 600 spectrometer equipped with a cryoprobe. 1H, 15N, and 13C assignments were obtained from HNCACB, CB-CA(CO)NH, HCCH-TOCSY, NOESY, and TOCSY spectra acquired at 2° C., 5° C., or 25° C. Dihedral angle restraints were obtained by analysis of an HNHA spectrum as previously described in Vuister G. W. and Bax A. 1993 J Am Chem Soc 115: 7772-7777. NMR data were processed by using XWINNMR/Topspin (Bruker) and analyzed with SPARKY (T. D. Goddard and D. G. Kneller, University of California, San Francisco). The structure of F2 was calculated from NOE and Ø angle constraints (e.g., FIGS. 5 and 9C) by using a protocol as described in Plambeck C. A., et al., 2003 J Biol Chem 278: 22805-22811.
# ¹⁵N-HSQC titrations were also carried out by using the double finger construct (F12; residues 1-95) and the double site oligonucleotide. AGGUAAAGGUAA (SEQ ID NO: 26). […] This titration (FIG. 9D) gave rise to the same pattern of chemical-shift changes as the two single-finger experiments. Only 3-4 new signals appeared, most likely from linker residues.
# [13] = biological target: T6, ZRANB2-F2 (untagged); test: 15N-HSQC titration, 1:1 complex
# Procedure: For RNA titrations, deprotected RNA oligonucleotides i.e., having the sequence AGGUAA, […] (SEQ ID NO: 25), or […] (SEQ ID NO: 26) and the appropriate protein were dialyzed into 10 mM Mops (pH 7.2) and 0.5 mM DTT. Protein and RNA concentrations were calculated from A₂₈₀ and A₂₆₀, respectively. Final concentrations of complexes after titrations were typically approximately 0.1-0.5 mM. Assignments of the F2:RNA complex (1:1 or 1:1.2 molar ratio) were made at 25° C. as described above.
# The inventors then carried out chemical-shift perturbation experiments, titrating short (6 or 10 nt) RNA oligonucleotides containing a single AGGUAA motif into ¹⁵N-labeled F2.
# [14] = biological target: T7, ZRANB2-F12; test: EMSA; dsRNA control; conditions: tags: GST removed for FA, gel shift and SPR; label: 32P
# Procedure: as §1, §2
# [15] = biological target: T7, ZRANB2-F12; test: EMSA; interaction abrogated; conditions: tags: GST removed for FA, gel shift and SPR; label: 32P
# Procedure: as §1, §2
binder,measurement,setting,value
B1,binding result,[1],no binding
B2,binding result,[2],binds
B3,binding signal,[3],~2 fold lower than WT F2
same,binding result,[4],binds
same,Ka,[5],3e+06 M⁻¹
same,Ka,[6],1e+06 M⁻¹
same,binding result,[7],binds
same,binding result,[8],binds
B4,binding result,[9],binds
B5,binding signal,[10],~2 fold higher than WT F2 on same RNA
B6,binding result,[11],binds
B7,binding result,[12],binds
B8,binding result,[13],binds
B9,binding result,[14],no binding
B10,binding result,[15],no binding
